Data published in US20190031761A1 (SAMSUNG LIFE PUBLIC WELFARE FOUNDATION, published 2019).

Key:
[1] = molecular target: T1, EGFRvIII expressed in cells (vIII352T1 cells; 626 patient-derived cells) (human, UniProt P00533 25-1210); experiment: FACS on vIII352T1 cells (EGFRvIII only), Alexa Fluor 488 anti-human IgG
T1 construct: whole, on cells; On vIII352T1 cells (EGFR-/EGFRvIII+) in FACS and cytotoxicity assays

[2] = molecular target: EGFR expressed on cells (780 patient-derived cells; normal human epidermal keratinocytes) (human, UniProt P00533 25-1210); experiment: FACS on normal human epidermal keratinocytes (EGFR only), Alexa Fluor 488 anti-human IgG
[3] = molecular target: T2, EGFRvIII recombinant protein with Fc tag, produced in-house (human); experiment: SPR (Biacore T200), antibody captured with human Fab capture kit, EGFRvIII antigen 0.25 nM to 256 nM as analyte
T2 construct: Produced in Expi293 cells; also called EGFRvIII antigen
T2 sequence (chain, as listed by the source limits assumed): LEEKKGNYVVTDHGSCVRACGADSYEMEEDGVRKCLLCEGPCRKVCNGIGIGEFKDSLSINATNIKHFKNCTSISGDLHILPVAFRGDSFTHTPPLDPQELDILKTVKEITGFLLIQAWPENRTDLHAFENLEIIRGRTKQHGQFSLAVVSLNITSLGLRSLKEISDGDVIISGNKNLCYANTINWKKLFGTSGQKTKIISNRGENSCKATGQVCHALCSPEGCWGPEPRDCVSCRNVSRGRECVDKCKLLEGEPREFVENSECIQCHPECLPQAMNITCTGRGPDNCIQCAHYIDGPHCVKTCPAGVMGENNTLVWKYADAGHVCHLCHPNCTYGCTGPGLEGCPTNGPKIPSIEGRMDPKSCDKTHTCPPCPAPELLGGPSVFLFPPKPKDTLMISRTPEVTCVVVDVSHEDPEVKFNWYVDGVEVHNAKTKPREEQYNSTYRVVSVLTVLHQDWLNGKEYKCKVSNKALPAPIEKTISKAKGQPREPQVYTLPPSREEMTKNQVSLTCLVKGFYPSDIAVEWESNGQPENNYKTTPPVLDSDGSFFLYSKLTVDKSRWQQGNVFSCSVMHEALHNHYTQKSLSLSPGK

[4] = molecular target: T3, recombinant human EGFR/ErbB1 Fc chimera protein (R&D systems, 344-ER) (human, UniProt P00533 25-645); experiment: SPR (Biacore T200), B4A3 captured as ligand, rhEGFR-Fc as sample, 25 C, 1:1 Binding fit to sensorgrams that hardly leave the baseline
T3 construct: Bought protein; also called EGFR recombinant protein; Fc part of the bought chimera not given

- EC50 (read off the curve) [1]: ~0.04 nM
- EC50 (read off the curve) [2]: ~0.03 nM
- Kd [3]: 4.38 nM
- koff [3]: 0.000248 s⁻¹
- kon [3]: 56600 M⁻¹ s⁻¹
- koff [4]: 0.00801 s⁻¹
- kon [4]: 632 M⁻¹ s⁻¹
B1: B4A3 antibody (human IgG1) (antibody, V domains shown)
VH: EVQLLESGGGLVQPGGSLRLSCAASGFTFSNYYMSWVRQAPGKGLEWVSGTSPNGGSKYYADSVKGRFTISRDNSKNTLYLQMNSLRAEDTAVYYCAKGRRKLRATRFDYWGQGTLVTVSS
VL: QSVLTQPPSASGTPGQRVTISCTGSSSNIGNNYVSWYQQHPGTAPKLLIYSDSNRPSGVPDRFSGSKSGTSASLAISGLRSEDEADYYCATWDASLSAYVFGGGTKLTVL
notes: also called B4A3 IgG; B4A3 human IgG1
